The source of these data is PMC6821725, “Unique structure and function of viral rhodopsins” (Nature Communications, 2019).

In one data set the target is Asp85 (UniProt position 98, WARYADWLFTT). Conditions: cited from earlier work.
Data set [1] has as its target Organic Lake Phycodnavirus rhodopsin II (Organic Lake Phycodnavirus). Nature of the data set: SEC.
The target is the same in data set [2]. The data set is described as follows: cross-linking; glutaraldehyde (10%), DDM-solubilized multimeric SEC fraction, 2 mg/ml protein, 8 h, 4 °C, read by SDS-PAGE.
For data set [3] the target is unchanged. The data set is described as follows: cross-linking; glutaraldehyde (10%), monomeric fraction reconstituted into POPC/POPG (4:1 by weight; POPC:POPS in another paragraph) liposomes, 1 mg/ml protein, 8 h, read by SDS-PAGE.
Data set [4] shares this target. The data set is described as follows: crystal structure; in meso crystallization in monoolein from the monomeric fraction, 0.2 M sodium malonate pH 4.6, 15% PEG 550 MME, 22 °C; space group P2_(1), five molecules in the asymmetric unit.
Data set [5] deals with OLPVRII triple mutant E26A/R36A/W203A (Organic Lake Phycodnavirus). Nature of the data set: SEC. In general terms: In gel filtration, larger molecules generally elute earlier.
Data set [6] addresses T1, Organic Lake Phycodnavirus rhodopsin II (OLPVRII) (Organic Lake phycodnavirus, UniProt Z9UQ29F7D0).
T1 construct: expressed in E. coli SE1 or C41(DE3); monomeric and pentameric fractions in DDM
Nature of the data set: X-ray crystal structure […] A, in meso; UV-Vis absorption. The class given is binding. The conditions noted are these: covalent; Schiff base to Lys195; crystals from 0.2 M sodium malonate pH 4.6; spectra in DDM.

The pKa is the pH at which an ionisable group is half protonated. Turning to “Bacteriorhodopsin (bR) (Halobacterium salinarum)”, the pKa in the data set with Asp85 was 2.7.

The stoichiometry N is the number of molecules, sites or subunits per partner or assembly. For the molecule “Organic Lake Phycodnavirus rhodopsin II (natural protein)”, the pentamer:monomer ratio in the elution profile (pentamer:monomer) in data set [1] came out at 4. Moreover, the stoichiometry N in data set [1], in data set [2], in data set [3] and in data set [4] was 5 each time.

With “OLPVRII triple mutant E26A/R36A/W203A (natural protein)”, in data set [5], the pentamer:monomer ratio in the elution profile (pentamer:monomer) came out at 1 and the stoichiometry N amounted to 5.

`CC1=C(/C=C/C(C)=C/C=C/C(C)=C/C=O)C(C)(C)CCC1` [all-trans-retinal]: in data set [6], the “X-ray crystal structure 1.9 A, in meso; UV-Vis absorption” value was “The retinal cofactor is covalently bound to Lys195 through the Schiff base (RSB)”.
